This test concerns the target BB2 receptor (gastrin-releasing peptide receptor) (human (endogenous in PC-3), UniProt P30550 1-384). Description: radioligand binding.

*: point of attachment. DOTA = O=C(O)CN1CCN(CC(=O)O)CCN(CC(=O)*)CCN(CC(=O)O)CC1; Aoc = NCCCCCCCC(=O)O Bounds are passed on as bounds.

A word on the IC50: it is the concentration that gives 50% inhibition. Read a low IC50 as greater potency in that assay.

Sequence of BB2 receptor (gastrin-releasing peptide receptor) (P30550 whole entry): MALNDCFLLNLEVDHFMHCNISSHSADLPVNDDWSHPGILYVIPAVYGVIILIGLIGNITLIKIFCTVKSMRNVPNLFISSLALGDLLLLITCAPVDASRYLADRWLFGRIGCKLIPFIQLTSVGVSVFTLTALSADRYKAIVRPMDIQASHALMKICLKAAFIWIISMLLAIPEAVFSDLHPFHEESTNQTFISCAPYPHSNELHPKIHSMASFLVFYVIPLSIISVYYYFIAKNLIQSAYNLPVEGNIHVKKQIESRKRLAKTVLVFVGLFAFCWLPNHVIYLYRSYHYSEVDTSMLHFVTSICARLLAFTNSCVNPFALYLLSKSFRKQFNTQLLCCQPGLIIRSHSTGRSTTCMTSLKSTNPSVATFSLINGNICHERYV

B1: DOTA-8-AOC-NONSENSE (peptide)
peptide: {DOTA-Aoc}-HMGWLAQV-NH2
SMILES: CSCC[C@H](NC(=O)[C@H](Cc1c[nH]cn1)NC(=O)CCCCCCCNC(=O)CN1CCN(CC(=O)O)CCN(CC(=O)O)CCN(CC(=O)O)CC1)C(=O)NCC(=O)N[C@@H](Cc1c[nH]c2ccccc12)C(=O)N[C@@H](CC(C)C)C(=O)N[C@@H](C)C(=O)N[C@@H](CCC(N)=O)C(=O)N[C@H](C(N)=O)C(C)C
Take B1: the IC50 was > 10 µM. To {DOTA-Aoc}-HMGWLAQV-NH2 (also: In complex of DOTA) [In-DOTA-8-AOC-NONSENSE] belongs > 10 µM.
